In the Immune Epitope Database (IEDB):

Experiments:
HLA-B*15:01 = experiment: IEDB peptide-MHC binding, purified MHC/competitive/fluorescence; filed as Kd, often an IC50 or EC50 that approximates it; ≥ and ≤ were set here for values at or beyond the usual limits of such assays
HLA-A*24:03 = experiment: as above
HLA-B*58:01 = experiment: as above; settings: source organism: Escherichia coli 536
HLA-A*29:02 = experiment: as above
HLA-B*39:01 = experiment: as above
HLA-A*68:02 = experiment: as above
HLA-B*18:01 = experiment: as above
HLA-A*02:12 = experiment: as above
HLA-A*03:01 = experiment: as above
HLA-B*57:01 = experiment: as above
HLA-B*51:01 = experiment: as above
HLA-B*15:17 = experiment: as above
HLA-A*02:01 = experiment: as above
HLA-B*27:03 = experiment: as above
HLA-A*02:16 = experiment: as above
HLA-B*46:01 = experiment: as above
HLA-A*69:01 = experiment: as above
HLA-A*23:01 = experiment: as above
HLA-A*26:01 [1] = experiment: as above
HLA-A*02:19 = experiment: as above
HLA-A*02:11 = experiment: as above
HLA-A*02:03 = experiment: as above
HLA-B*35:01 = experiment: as above; settings: source organism: Mycobacterium tuberculosis C
HLA-A*01:01 = experiment: IEDB peptide-MHC binding, purified MHC/direct/fluorescence; filed as Kd, often an IC50 or EC50 that approximates it; ≥ and ≤ were set here for values at or beyond the usual limits of such assays; settings: source organism: Mycobacterium tuberculosis variant bovis BCG str. Pasteur 1173P2
HLA-A*26:01 [2] = experiment: as above; settings: source organism: Mycobacterium tuberculosis variant bovis BCG str. Pasteur 1173P2
[3] = source organism: Escherichia coli 536
[4] = source organism: Giardia lamblia ATCC 50803
[5] = source organism: Vibrio parahaemolyticus AQ3810
[6] = source organism: Salmonella enterica subsp. enterica serovar Typhi str. CT18

Measured: Kd

QMLPGYFRF
0.046 µM: HLA-B*58:01
0.0002 µM: HLA-A*24:03; [3]
0.223 µM: HLA-B*15:01; [3]

DEYGPVFVE
0.0861 µM: HLA-B*18:01; [4]
≥ 20 µM: HLA-A*29:02; [4] | HLA-B*39:01; [4] | HLA-B*15:01; [4] | HLA-A*68:02; [4] | HLA-A*02:12; [4] | HLA-A*03:01; [4] | HLA-B*57:01; [4] | HLA-A*24:03; [4] | HLA-B*51:01; [4] | HLA-B*15:17; [4] | HLA-A*02:01; [4] | HLA-B*27:03; [4] | HLA-A*02:16; [4] | HLA-B*46:01; [4] | HLA-A*69:01; [4] | HLA-A*23:01; [4] | HLA-A*26:01 [1]; [4] | HLA-A*02:19; [4] | HLA-A*02:11; [4] | HLA-A*02:03; [4]

KVGYFQHGA
≥ 20 µM: HLA-A*29:02; [5] | HLA-B*39:01; [5] | HLA-B*15:01; [5] | HLA-B*18:01; [5] | HLA-A*03:01; [5] | HLA-B*57:01; [5] | HLA-A*24:03; [5] | HLA-B*51:01; [5] | HLA-B*15:17; [5] | HLA-A*02:01; [5] | HLA-B*27:03; [5] | HLA-A*02:16; [5] | HLA-B*46:01; [5] | HLA-A*23:01; [5] | HLA-A*26:01 [1]; [5] | HLA-A*02:19; [5] | HLA-A*02:03; [5]
0.171 µM: HLA-A*02:12; [5]

FVARIDLGY
0.0142 µM: HLA-B*35:01
0.0199 µM: HLA-A*26:01 [2]
0.603 µM: HLA-A*01:01

KSKPRIHGY
≥ 20 µM: HLA-A*29:02; [6] | HLA-B*39:01; [6] | HLA-A*68:02; [6] | HLA-B*18:01; [6] | HLA-A*02:12; [6] | HLA-A*03:01; [6] | HLA-A*24:03; [6] | HLA-B*51:01; [6] | HLA-A*02:01; [6] | HLA-B*27:03; [6] | HLA-A*02:16; [6] | HLA-B*46:01; [6] | HLA-A*69:01; [6] | HLA-A*23:01; [6] | HLA-A*26:01 [1]; [6] | HLA-A*02:19; [6] | HLA-A*02:11; [6] | HLA-A*02:03; [6]
0.169 µM: HLA-B*57:01; [6]
